# Source: PMC10786891, “Massively parallel profiling of RNA-targeting CRISPR-Cas13d”
# Residue numbers refer to the chain shown, from its start. In names and notes the source's numbering stands.
# T1: EsCas13d, nuclease-dead (Eubacterium siraeum, UniProt B0MS50, R295A;H300A;R849A;H854A)
# T1 sequence: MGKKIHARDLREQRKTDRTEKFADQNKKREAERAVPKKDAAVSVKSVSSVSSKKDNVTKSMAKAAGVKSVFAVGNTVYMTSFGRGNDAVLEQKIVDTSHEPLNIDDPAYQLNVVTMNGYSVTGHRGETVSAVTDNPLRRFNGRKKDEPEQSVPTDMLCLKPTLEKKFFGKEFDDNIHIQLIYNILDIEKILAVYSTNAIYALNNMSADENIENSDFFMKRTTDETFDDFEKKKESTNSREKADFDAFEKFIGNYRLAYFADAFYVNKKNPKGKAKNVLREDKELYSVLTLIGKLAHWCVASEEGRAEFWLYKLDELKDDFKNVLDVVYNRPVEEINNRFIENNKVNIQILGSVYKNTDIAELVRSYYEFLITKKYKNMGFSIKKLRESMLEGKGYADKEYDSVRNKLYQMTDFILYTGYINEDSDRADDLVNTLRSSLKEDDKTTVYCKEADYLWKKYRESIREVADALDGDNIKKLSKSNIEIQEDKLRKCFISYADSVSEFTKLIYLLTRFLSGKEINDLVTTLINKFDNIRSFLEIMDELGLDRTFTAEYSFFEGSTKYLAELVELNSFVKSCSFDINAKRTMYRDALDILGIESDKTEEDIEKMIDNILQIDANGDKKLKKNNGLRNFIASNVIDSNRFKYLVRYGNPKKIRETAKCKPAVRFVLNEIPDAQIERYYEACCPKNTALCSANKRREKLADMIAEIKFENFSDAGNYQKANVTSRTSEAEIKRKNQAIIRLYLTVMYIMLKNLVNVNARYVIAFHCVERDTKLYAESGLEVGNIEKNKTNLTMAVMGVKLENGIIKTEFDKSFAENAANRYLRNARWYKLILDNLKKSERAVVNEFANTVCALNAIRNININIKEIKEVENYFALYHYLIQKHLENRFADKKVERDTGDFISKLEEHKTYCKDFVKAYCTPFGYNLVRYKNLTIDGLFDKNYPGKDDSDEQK
# B1: target 1 del2,del16 (mixed)
# RNA 1: CACCCGUGCAAAAAUGCAGGGGUCUAAAACUGAGCGGAUAACCUCUCUAUGG
# RNA 2: GGGAAUGGAUCCACAUCUACGAAUUCGUACCAUAGGAGGUUAUCCGCUACCGAGAUCGGAAGAGCACACGU
# B2: target 1 G5A,A14G (mixed)
# RNA 1: B1 RNA 1
# RNA 2: GGGAAUGGAUCCACAUCUACGAAUUCGUACCAUAGAGGGGUUAUCCACUCACCGAGAUCGGAAGAGCACACGU
# B3: target 1 A1U,G15A (mixed)
# RNA 1: B1 RNA 1
# RNA 2: B2 RNA 2 with G37A, G38A, A47G, A51U
# B4: target 1 insA 3' of 13,insG 3' of 9 (mixed)
# RNA 1: B1 RNA 1
# RNA 2: GGGAAUGGAUCCACAUCUACGAAUUCGUACCAUAGAGAGAGUUAGUCCGCUCACCGAGAUCGGAAGAGCACACGU
# B5: target 1 G17C,C22U (mixed)
# RNA 1: B1 RNA 1
# RNA 2: B2 RNA 2 with C30U, G35C, G38A, A47G
# B6: target 1 A1C,C7A (mixed)
# RNA 1: B1 RNA 1
# RNA 2: B2 RNA 2 with G38A, C45A, A47G, A51C
# B7: target 1 insC 3' of 5,insU 3' of 5 (mixed)
# RNA 1: B1 RNA 1
# RNA 2: B4 RNA 2 with A40G, G41U, U43A, A44U, G45C, U46C, C47G, G49U
# B8: target 1 insA 3' of 8,insA 3' of 7 (mixed)
# RNA 1: B1 RNA 1
# RNA 2: B4 RNA 2 with A40G, G41U, U43A, A44U, G45A, U46C, C47A
# B9: target 1 insU 3' of 12,insG 3' of 9 (mixed)
# RNA 1: B1 RNA 1
# RNA 2: B4 RNA 2 with A40G, G41U
# B10: target 1 insC 3' of 13,insC 3' of 13 (mixed)
# RNA 1: B1 RNA 1
# RNA 2: B4 RNA 2 with A40C, G41C, U42G, A44U, G45A
# B11: target 1 insU 3' of 22,insC 3' of 8 (mixed)
# RNA 1: B1 RNA 1
# RNA 2: GGGAAUGGAUCCACAUCUACGAAUUCGUACUCAUAGAGAGGUUAUCCCGCUCACCGAGAUCGGAAGAGCACACGU
# B12: target 1 A1G,A20U (mixed)
# RNA 1: B1 RNA 1
# RNA 2: B2 RNA 2 with A32U, G38A, A47G, A51G
# B13: target 1 insC 3' of 22,insA 3' of 8 (mixed)
# RNA 1: B1 RNA 1
# RNA 2: B11 RNA 2 with U31C, C46A
# B14: target 1 A1U,A20U (mixed)
# RNA 1: B1 RNA 1
# RNA 2: B2 RNA 2 with A32U, G38A, A47G, A51U
# B15: target 1 C2U,U11A (mixed)
# RNA 1: B1 RNA 1
# RNA 2: B2 RNA 2 with G38A, U41A, A47G, C50U
# B16: target 1 A1U,C2U (mixed)
# RNA 1: B1 RNA 1
# RNA 2: B2 RNA 2 with G38A, A47G, C50U, A51U
# B17: target 1 G5A,A14C (mixed)
# RNA 1: B1 RNA 1
# RNA 2: B2 RNA 2 with G38C
# B18: target 1 U8C,G15A (mixed)
# RNA 1: B1 RNA 1
# RNA 2: B2 RNA 2 with G37A, G38A, U44C, A47G
# B19: target 1 insC 3' of 17 (mixed)
# RNA 1: B1 RNA 1
# RNA 2: GGGAAUGGAUCCACAUCUACGAAUUCGUACCAUAGCAGAGGUUAUCCGCUCACCGAGAUCGGAAGAGCACACGU
# B20: target 1 U11G,G12A (mixed)
# RNA 1: B1 RNA 1
# RNA 2: B2 RNA 2 with G38A, G40A, U41G, A47G
# B21: target 1 insA 3' of 15,insG 3' of 10 (mixed)
# RNA 1: B1 RNA 1
# RNA 2: B4 RNA 2 with G39A, A40G, A44G, G45A
# B22: target 1 insG 3' of 16,insC 3' of 8 (mixed)
# RNA 1: B1 RNA 1
# RNA 2: B4 RNA 2 with A38G, G39A, A40G, G45U, U46C
# B23: target 1 A20U (mixed)
# RNA 1: B1 RNA 1
# RNA 2: B2 RNA 2 with A32U, G38A, A47G
# B24: target 1 insA 3' of 8,insC 3' of 8 (mixed)
# RNA 1: B1 RNA 1
# RNA 2: B4 RNA 2 with A40G, G41U, U43A, A44U, G45A, U46C
# B25: target 1 insC 3' of 9,insA 3' of 8 (mixed)
# RNA 1: B1 RNA 1
# RNA 2: B4 RNA 2 with A40G, G41U, U43A, A44C, G45U, U46A
# B26: target 1 insU 3' of 9,insG 3' of 2 (mixed)
# RNA 1: B1 RNA 1
# RNA 2: GGGAAUGGAUCCACAUCUACGAAUUCGUACCAUAGAGAGGUUAUUCCGCUCGACCGAGAUCGGAAGAGCACACGU
# B27: target 1 G5C,U8A (mixed)
# RNA 1: B1 RNA 1
# RNA 2: B2 RNA 2 with G38A, U44A, A47C
# B28: target 1 C2U,C21U (mixed)
# RNA 1: B1 RNA 1
# RNA 2: B2 RNA 2 with C31U, G38A, A47G, C50U
# B29: target 1 C7A (mixed)
# RNA 1: B1 RNA 1
# RNA 2: B2 RNA 2 with G38A, C45A, A47G
# B30: target 1 insC 3' of 10,insA 3' of 6 (mixed)
# RNA 1: B1 RNA 1
# RNA 2: B4 RNA 2 with A40G, G41U, U43C, G45U, U46C, C48A
# B31: target 1 G17A,U19A (mixed)
# RNA 1: B1 RNA 1
# RNA 2: B2 RNA 2 with U33A, G35A, G38A, A47G
# B32: target 1 U8C,A9C (mixed)
# RNA 1: B1 RNA 1
# RNA 2: B2 RNA 2 with G38A, A43C, U44C, A47G
# B33: target 1 C4A,A16C (mixed)
# RNA 1: B1 RNA 1
# RNA 2: B2 RNA 2 with A36C, G38A, A47G, C48A
# B34: target 1 C6U,U8A (mixed)
# RNA 1: B1 RNA 1
# RNA 2: B2 RNA 2 with G38A, U44A, C46U, A47G
# B35: target 1 G17A,U19C (mixed)
# RNA 1: B1 RNA 1
# RNA 2: B2 RNA 2 with U33C, G35A, G38A, A47G
# Target: T1, EsCas13d, nuclease-dead
# Experiment: crRNA (strand 1, pre-loaded); Mg2+; 40 mM Tris-HCl pH 7.5, 150 mM NaCl, 6 mM MgCl2, 1 mM DTT, 0.1% Tween-20, 0.2 mg/ml BSA; 25 C; 10 min per concentration, then washed
# Conditions: tags: His6-TwinStrep-SUMO cleaved; N-terminal SNAP kept (SNAP-Surface 488); label: 3' end held by stalled T7 RNA polymerase
row,Binder,Kd [nM]
1,B1,82 ± 18
2,B2,42 ± 4
3,B3,11.2 ± 0.7
4,B4,6.9 ± 0.5
5,B5,62 ± 11
6,B6,9.8 ± 0.6
7,B7,9.3 ± 0.5
8,B8,11.3 ± 0.5
9,B9,13.3 ± 0.8
10,B10,35 ± 5
11,B11,~100
12,B12,37.8 ± 2.3
13,B13,31.4 ± 2.8
14,B14,35.1 ± 1.9
15,B15,29.5 ± 3.5
16,B16,9.6 ± 0.5
17,B17,81 ± 34
18,B18,26.8 ± 2.1

row,Binder,Kd [nM]
1,B19,50 ± 11
2,B20,4.27 ± 0.21
3,B21,13.6 ± 1.8
4,B22,24.3 ± 2
5,B23,50 ± 5
6,B24,13.2 ± 0.6
7,B25,8.8 ± 0.5
8,B26,24.6 ± 3.2
9,B27,38 ± 5
10,B28,8.2 ± 0.8
11,B29,7.8 ± 0.4
12,B30,25.5 ± 2.5
13,B31,54 ± 8
14,B32,30.5 ± 2.7
15,B33,49 ± 11
16,B34,15.1 ± 0.5
17,B35,46 ± 6
